Here are results for one substance from patent EP1657250A1, “HLA-A *01-binding T-cell epitope of WT1” (Charité - Universitätsmedizin Berlin, priority 2004, dated 2006).

One experiment addresses T1, immunoproteasome (Homo sapiens, UniProt P28062+P28065+P40306).
T1 construct: Proteasomes were isolated from the EBV-transformed B-cell line; endogenous in cells; host or cells: LCL-721 (EBV-transformed B-cell line)
In words: In vitro proteasome digestion of the precursor peptide, immunoproteasome. The format is biochemical. The following applies: 6 h incubation; Edman sequencing and MALDI-TOF. On the procedure:
(§1) Purification of 20S proteasomes, in vitro degradation of WT1.314-336 (SEQ ID NO: 6), and separation and analysis of cleavage products were performed as described (16). 10 nmol (27.6 µg) of WT1.314-336 were incubated for 6 h with 2 µg immunoproteasome or with 2 µg of constitutive proteasome, respectively, in digestion buffer (20 mM Tris-HCI; pH 7.6; 10 mM NaCl; 10 mM KCI; 2 mM MgCl2; 0.5 mM DTT) and the reaction stopped by freezing the reaction mixture at -80°C.
(§2) One crucial prerequisite for a peptide to be presented as a T-cell epitope is its proper excision from the protein. We analyzed in vitro digestion of the […] WT1-derived peptide 314-336 (SEQ ID NO: 6) encompassing the WT1.317-327 epitope […] (SEQ ID NO: 1) by constitutive as well as immunoproteasomes (Fig. 2). Proteasomes were isolated from the EBV-transformed B-cell line LCL-721.174 (constitutive proteasome) and the parental cell line LCL-721 (immunoproteasome, ref. 16) and were used for digestion with a 6-hour incubation period. A combination of Edman sequencing and MALDI-TOF mass spectrometry was subsequently performed to determine the identity and quantity of peptides generated after proteasome digestion. The amount of fragments detected is indicated.

Another experiment concerns the target T2, constitutive proteasome (Homo sapiens, UniProt P28072+P28074+Q99436).
T2 construct: Proteasomes were isolated from the EBV-transformed B-cell line; endogenous in cells; host or cells: LCL-721.174 (EBV-transformed B-cell line)
In words: In vitro proteasome digestion of the precursor peptide, constitutive proteasome. It counts as biochemical. The following applies: 6 h incubation; Edman sequencing and MALDI-TOF. As to the method:
as §1, §2

Entries after “also recorded” stand apart in the source; their conditions may differ.

Take “WT1.314-336: WT1-derived precursor peptide 314-336 encompassing the WT1.317-327 epitope (ASETSEKRPFMCAYPGCNKRYFK)”: in the experiment with immunoproteasome, the “generation of C-terminal residue Tyr-327 (fragments detected)” value is reported as “generated as the major fragment (314-327); also recorded: complementary fragment 328-336 represented the other major fragment” and the “processing of the N-terminus” value was “No processing of the N-terminus was observed”. Besides, in the experiment with constitutive proteasome, the “cleavage site C-terminal to Tyr-327 (fragments detected)” value was “fragment 328-336 was efficiently generated” and the “processing of the N-terminus Thr-317” value was “a fragment was found sharing the N-terminus Thr-317 (T)”.
